From publication PMC2171815

Target: Cog3p (subunit 3 of the conserved oligomeric Golgi (COG) complex) (rat (endogenous in rat liver Golgi))
Assay: co-IP

B1: GS28 (intra-Golgi v-SNARE) (natural protein)
chain: MAAGTSNYWEDLRKQARQLENELDLKLVSFSKLCTSYSHSSARDGGRDRYSSDTTPLLNGSSQDRMFETMAIEIEQLLARLTGVNDKMAEYTHSAGVPSLNAALMHTLQRHRDILQDYTHEFHKTKANFMAIRERENLMGSVRKDIESYKSGSGVNNRRTELFLKEHDHLRNSDRLIEETISIAMATKENMTSQRGMLKSIHSKMNTLANRFPAVNSLIQRINLRKRRDSLILGGVIGICTILLLLYAFH
B1 gave a percent of total co-precipitated of 5%.
